# Data published in doi:10.64898/2025.12.11.693622 (bioRxiv, 2025).
# “And” between values parts separate entries of the source, which are not always exact repeats. Equal values may be shown once.
# B1: MBP-tagged complete IMS domain of CCDC127, C144S with L176S/F177S/V222S/W223S (MBP-CC-CHB^C144STip, residues 48-260) (domain or fragment, human, UniProt Q96BQ5 48-260, looked up)
# chain: SQKEVEKEREAYRRRTAAFQQDLEAKYHAMISENRRAVAQLSLELEKEQNRTASYREALISQGRKLVEEKKLLEQERAQVMQEKRQVQPLRSAYLSSLQREENWQRRARLLLKEFEAVLTERQNIYCSSSLPRSKRLEIEKSLLVRASVDPVAADLEMAAGLTDIFQHDTYCGDSSNTNKRQNGRLMWLYLKYWELVVELKKFKRVEEAILEK
# B2: MBP-tagged complete IMS domain of CCDC127, C144S (MBP-CC-CHB^C144S, residues 48-260) (domain or fragment, human, UniProt Q96BQ5 48-260, looked up)
# chain: SQKEVEKEREAYRRRTAAFQQDLEAKYHAMISENRRAVAQLSLELEKEQNRTASYREALISQGRKLVEEKKLLEQERAQVMQEKRQVQPLRSAYLSSLQREENWQRRARLLLKEFEAVLTERQNIYCSLFLPRSKRLEIEKSLLVRASVDPVAADLEMAAGLTDIFQHDTYCGDVWNTNKRQNGRLMWLYLKYWELVVELKKFKRVEEAILEK
# B3: CCDC127 WT-HA (full-length CCDC127 with HA tag) (natural protein, human, UniProt Q96BQ5 1-260, looked up)
# chain: MNNLNDPPNWNIRPNSRADGGDGSRWNYALLVPMLGLAAFRWIWSRESQKEVEKEREAYRRRTAAFQQDLEAKYHAMISENRRAVAQLSLELEKEQNRTASYREALISQGRKLVEEKKLLEQERAQVMQEKRQVQPLRSAYLSCLQREENWQRRARLLLKEFEAVLTERQNIYCSLFLPRSKRLEIEKSLLVRASVDPVAADLEMAAGLTDIFQHDTYCGDVWNTNKRQNGRLMWLYLKYWELVVELKKFKRVEEAILEK
# B4: MBP-tagged C-terminal helical bundle of CCDC127, C144S variant (MBP-CHB^C144S, residues 137-260) (domain or fragment, human, UniProt Q96BQ5 137-260, looked up)
# chain: LRSAYLSSLQREENWQRRARLLLKEFEAVLTERQNIYCSLFLPRSKRLEIEKSLLVRASVDPVAADLEMAAGLTDIFQHDTYCGDVWNTNKRQNGRLMWLYLKYWELVVELKKFKRVEEAILEK
# B5: MBP-tagged C-terminal helical bundle of CCDC127, C144S with L176S/F177S/V222S/W223S (MBP-CHB^C144STip, residues 137-260) (domain or fragment, human, UniProt Q96BQ5 137-260, looked up)
# chain: LRSAYLSSLQREENWQRRARLLLKEFEAVLTERQNIYCSSSLPRSKRLEIEKSLLVRASVDPVAADLEMAAGLTDIFQHDTYCGDSSNTNKRQNGRLMWLYLKYWELVVELKKFKRVEEAILEK
# B6: CCDC127 coiled-coil domain (CCDC127^CC, residues 48-120), wild type (domain or fragment, human, UniProt Q96BQ5 48-120, looked up)
# chain: SQKEVEKEREAYRRRTAAFQQDLEAKYHAMISENRRAVAQLSLELEKEQNRTASYREALISQGRKLVEEKKLL
# B7: CCDC127^CC-K73A (residues 48-120) (domain or fragment, human, UniProt Q96BQ5 48-120, looked up)
# chain: SQKEVEKEREAYRRRTAAFQQDLEAAYHAMISENRRAVAQLSLELEKEQNRTASYREALISQGRKLVEEKKLL
# B8: CCDC127^CC D69A (residues 48-120) (domain or fragment, human, UniProt Q96BQ5 48-120, looked up)
# chain: SQKEVEKEREAYRRRTAAFQQALEAKYHAMISENRRAVAQLSLELEKEQNRTASYREALISQGRKLVEEKKLL
# B9: CCDC127^1-134-HA (N-terminal variant with the coiled-coil, lacking the C-terminal domain) (domain or fragment, human, UniProt Q96BQ5 1-134, looked up)
# chain: MNNLNDPPNWNIRPNSRADGGDGSRWNYALLVPMLGLAAFRWIWSRESQKEVEKEREAYRRRTAAFQQDLEAKYHAMISENRRAVAQLSLELEKEQNRTASYREALISQGRKLVEEKKLLEQERAQVMQEKRQV
# B10: CCDC127^135-260-HA (C-terminal helical bundle domain) (domain or fragment, human, UniProt Q96BQ5 135-260, looked up)
# chain: QPLRSAYLSCLQREENWQRRARLLLKEFEAVLTERQNIYCSLFLPRSKRLEIEKSLLVRASVDPVAADLEMAAGLTDIFQHDTYCGDVWNTNKRQNGRLMWLYLKYWELVVELKKFKRVEEAILEK
# Key:
# [1] = target: the molecule itself; assay: SEC-MALS
# [2] = target: the molecule itself; assay: cross-linking
# [3] = target: the molecule itself; assay: crystal structure
# [4] = target: the molecule itself; assay: AUC + SEC
Protein,stoichiometry N [1],stoichiometry N [2],other results
B1,2 to 3,,
B2,2,,
B3,,2,
B4,2,,
B5,2,,
B6,,,stoichiometry N [3]: 2 and 4
B7,,,stoichiometry N [4]: 4
B8,,,stoichiometry N [4]: 2
B9,,2,
B10,,2,
